{
  "source": "paper doi:10.1101/2021.06.21.449265",
  "about": "(bioRxiv, 2021)",
  "binders": {"B1": {"name": "Fy-2 (Ppp1r21) (natural protein, human, UniProt Q6ZMI0 1-780, looked up)", "chain": "MASAELQGKYQKLAQEYSKLRAQNQVLKKGVVDEQANSAALKEQLKMKDQSLRKLQQEMDSLTFRNLQLAKRVELLQDELALSEPRGKKNKKSGESSSQLSQEQKSVFDEDLQKKIEENERLHIQFFEADEQHKHVEAELRSRLATLETEAAQHQAVVDGLTRKYMETIEKLQNDKAKLEVKSQTLEKEAKECRLRTEECQLQLKTLHEDLSGRLEESLSIINEKVPFNDTKYSQYNALNVPLHNRRHQLKMRDIAGQALAFVQDLVTALLNFHTYTEQRIQIFPVDSAIDTISPLNQKFSQYLHENASYVRPLEEGMLHLFESITEDTVTVLETTVKLKTFSEHLTSYICFLRKILPYQLKSLEEECESSLCTSALRARNLELSQDMKKMTAVFEKLQTYIALLALPSTEPDGLLRTNYSSVLTNVGAALHGFHDVMKDISKHYSQKAAIEHELPTATQKLITTNDCILSSVVALTNGAGKIASFFSNNLDYFIASLSYGPKAASGFISPLSAECMLQYKKKAAAYMKSLRKPLLESVPYEEALANRRILLSSTESREGLAQQVQQSLEKISKLEQEKEHWMLEAQLAKIKLEKENQRIADKLKNTGSAQLVGLAQENAAVSNTAGQDEATAKAVLEPIQSTSLIGTLTRTSDSEVPDVESREDLIKNHYMARIVELTSQLQLADSKSVHFYAECRALSKRLALAEKSKEALTEEMKLASQNISRLQDELTTTKRSYEDQLSMMSDHLCSMNETLSKQREEIDTLKMSSKGNSKKNKSR"}},
  "key": {"Fy-2 (Ppp1r21) [1]": {"target": "B1", "experiment": "cryo-EM structure"}, "cryo-EM structure": {"target": "the molecule itself", "experiment": "cryo-EM structure"}, "Fy-1 (Tbck)": {"target": "T1, Fy-1 (Tbck) (human, UniProt Q8TEA7 1-893)", "T1 sequence (looked up)": "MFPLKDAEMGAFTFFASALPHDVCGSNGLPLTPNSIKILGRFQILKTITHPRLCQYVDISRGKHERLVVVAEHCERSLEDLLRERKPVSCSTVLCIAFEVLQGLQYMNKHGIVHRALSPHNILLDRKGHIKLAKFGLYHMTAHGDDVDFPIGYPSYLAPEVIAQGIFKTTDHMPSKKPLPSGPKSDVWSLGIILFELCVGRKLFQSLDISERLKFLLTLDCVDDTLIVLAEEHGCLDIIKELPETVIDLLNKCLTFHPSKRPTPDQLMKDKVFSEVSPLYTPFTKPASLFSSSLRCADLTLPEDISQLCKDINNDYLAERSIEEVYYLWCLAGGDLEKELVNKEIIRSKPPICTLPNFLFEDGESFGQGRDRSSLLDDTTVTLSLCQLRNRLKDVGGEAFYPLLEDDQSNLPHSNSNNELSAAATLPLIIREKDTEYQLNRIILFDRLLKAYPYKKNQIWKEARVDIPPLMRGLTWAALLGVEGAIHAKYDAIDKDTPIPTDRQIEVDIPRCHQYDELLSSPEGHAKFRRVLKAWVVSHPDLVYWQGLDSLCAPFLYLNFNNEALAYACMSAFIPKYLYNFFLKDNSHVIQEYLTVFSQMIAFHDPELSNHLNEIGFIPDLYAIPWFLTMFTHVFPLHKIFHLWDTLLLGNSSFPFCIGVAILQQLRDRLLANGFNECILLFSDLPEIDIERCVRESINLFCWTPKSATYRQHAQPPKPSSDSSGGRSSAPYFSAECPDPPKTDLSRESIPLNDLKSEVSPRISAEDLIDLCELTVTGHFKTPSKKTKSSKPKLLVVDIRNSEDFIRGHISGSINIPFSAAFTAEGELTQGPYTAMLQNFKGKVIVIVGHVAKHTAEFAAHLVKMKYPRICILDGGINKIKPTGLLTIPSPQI", "experiment": "HDX-MS"}, "Fy-2 (Ppp1r21) [2]": {"target": "B1", "experiment": "HDX-MS"}},
  "data": [
    {"binder": "Fy-4 (Cryzl1) (natural protein, human, UniProt O95825 1-349, looked up) MKGLYFQQSSTDEEITFVFQEKEDLPVTEDNFVKLQVKACALSQINTKLLAEMKMKKDLFPVGREIAGIVLDVGSKVSFFQPDDEVVGILPLDSEDPGLCEVVRVHEHYLVHKPEKVTWTEAAGSIRDGVRAYTALHYLSHLSPGKSVLIMDGASAFGTIAIQLAHHRGAKVISTACSLEDKQCLERFRPPIARVIDVSNGKVHVAESCLEETGGLGVDIVLDAGVRLYSKDDEPAVKLQLLPHKHDIITLLGVGGHWVTTEENLQLDPPDSHCLFLKGATLAFLNDEVWNLSNVQQGKYLCILKDVMEKLSTGVFRPQLDEPIPLYEAKVSMEAVQKNQGRKKQVVQF", "values": [
      {"measurement": "binding result", "setting": "Fy-2 (Ppp1r21) [1]", "result": "binds"},
      {"measurement": "stoichiometry N", "setting": "cryo-EM structure", "result": 2}
    ]},
    {"binder": "B1", "values": [
      {"measurement": "stoichiometry N", "setting": "cryo-EM structure", "result": 2},
      {"measurement": "binding result", "setting": "Fy-1 (Tbck)", "result": "binds"}
    ]},
    {"binder": "Rab5 (Rab5a), GTPγS loaded (natural protein, human, UniProt P20339 1-215, looked up) MASRGATRPNGPNTGNKICQFKLVLLGESAVGKSSLVLRFVKGQFHEFQESTIGAAFLTQTVCLDDTTVKFEIWDTAGQERYHSLAPMYYRGAQAAIVVYDITNEESFARAKNWVKELQRQASPNIVIALSGNKADLANKRAVDFQEAQSYADDNSLLFMETSAKTSMNVNEIFMAIAKKLPKNEPQNPGANSARGRGVDLTEPTQPTRNQCCSN", "values": [
      {"measurement": "binding result", "setting": "Fy-2 (Ppp1r21) [2]", "result": "binds"}
    ]},
    {"binder": "Fy-3 (C12orf4) (natural protein, human, UniProt Q9NQ89 1-552, looked up) MKKNRERFCNREREFVYKFKVGSQCLELRVPLKFPVQENASHLHGRLMLLHSLPCFIEKDLKEALTQFIEEESLSDYDRDAEASLAAVKSGEVDLHQLASTWAKAYAETTLEHARPEEPSWDEDFADVYHDLIHSPASETLLNLEHNYFVSISELIGERDVELKKLRERQGIEMEKVMQELGKSLTDQDVNSLAAQHFESQQDLENKWSNELKQSTAIQKQEYQEWVIKLHQDLKNPNNSSLSEEIKVQPSQFRESVEAIGRIYEEQRKLEESFTIHLGAQLKTMHNLRLLRADMLDFCKHKRNHRSGVKLHRLQTALSLYSTSLCGLVLLVDNRINSYSGIKRDFATVCQECTDFHFPRIEEQLEVVQQVVLYARTQRRSKLKESLDSGNQNGGNDDKTKNAERNYLNVLPGEFYITRHSNLSEIHVAFHLCVDDHVKSGNITARDPAIMGLRNILKVCCTHDITTISIPLLLVHDMSEEMTIPWCLRRAELVFKCVKGFMMEMASWDGGISRTVQFLVPQSISEEMFYQLSNMLPQIFRVSSTLTLTSKH", "values": [
      {"measurement": "binding result", "setting": "Fy-2 (Ppp1r21) [2]", "result": "binds"}
    ]},
    {"binder": "Fy-5 (Gatd1) (natural protein, human, UniProt Q8NB37 1-220, looked up) MASERLPNRPACLLVASGAAEGVSAQSFLHCFTMASTAFNLQVATPGGKAMEFVDVTESNARWVQDFRLKAYASPAKLESIDGARYHALLIPSCPGALTDLASSGSLARILQHFHSESKPICAVGHGVAALCCATNEDRSWVFDSYSLTGPSVCELVRAPGFARLPLVVEDFVKDSGACFSASEPDAVHVVLDRHLVTGQNASSTVPAVQNLLFLCGSRK", "values": [
      {"measurement": "stoichiometry N", "setting": "cryo-EM structure", "result": 2}
    ]}
  ]
}
